Experimental data from US20160175401A1, “COMPOITIONS AND METHODS FOR MODULATING THERMOGENESIS USING PTH-RELATED AND EGF-RELATED COMPOUNDS” (DANA-FARBER CANCER INSTITUTE INC., priority 2013, published 2016).

How the values were obtained:
PTH1R [1] = target: T1, PTH1R (Homo sapiens, UniProt Q03431); conditions: Dean et al., Hoare et al.; cited from earlier work
T1 sequence (Q03431 27-593): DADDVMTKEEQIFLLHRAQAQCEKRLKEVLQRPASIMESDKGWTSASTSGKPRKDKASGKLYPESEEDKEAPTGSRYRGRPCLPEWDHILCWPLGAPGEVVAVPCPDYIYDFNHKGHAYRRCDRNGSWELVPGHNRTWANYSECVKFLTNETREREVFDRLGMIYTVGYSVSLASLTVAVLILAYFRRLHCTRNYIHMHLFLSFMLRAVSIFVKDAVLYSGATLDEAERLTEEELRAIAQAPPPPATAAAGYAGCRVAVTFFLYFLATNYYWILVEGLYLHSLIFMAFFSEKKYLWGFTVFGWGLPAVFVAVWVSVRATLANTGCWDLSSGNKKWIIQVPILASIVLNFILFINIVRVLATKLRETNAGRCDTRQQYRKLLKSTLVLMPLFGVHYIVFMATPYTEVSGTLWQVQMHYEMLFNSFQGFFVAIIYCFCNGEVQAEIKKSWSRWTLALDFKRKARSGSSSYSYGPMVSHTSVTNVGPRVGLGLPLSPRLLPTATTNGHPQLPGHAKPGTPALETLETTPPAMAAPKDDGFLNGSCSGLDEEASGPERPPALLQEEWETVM

[2] = test system: PKA substrates CREB and HSL; assay: PKA signalling: protein phosphorylation by western blotting in primary adipocytes; assay type: cell-based, mouse; conditions: 100 nM NE, 100 ng ml^−1 PTHrP or PTH, 30 min, primary white and brown adipocytes (FIG. 23D-23E)
Method: UCP1 protein levels were measured by western blotting in white (FIG. 23A) and brown (FIG. 23B) adipocytes. […] Real-time triplicate readings (upper panel) and their averages (lower panel) are shown (n=4). […] The values are mean±s.e.m. Statistical analysis was conducted using the two-tailed t-test. *, P<0.05; **, P<0.005; ***, P<0.0005, compared with the control group.
Cells were homogenized in a lysis buffer containing 50 mMTris (pH 7.4), 500 mM NaCl, 1% NP40, 20% glycerol, 5 mM EDTA and 1 mM phenylmethylsulphonyl fluoride (PMSF) supplemented with protease and phosphatase inhibitor cocktails (Roche). The homogenates were centrifuged at 13,000 r.p.m. for 10 min, and the supernatants were used as whole-cell lysates. Protein concentration was determined by Bio-Rad protein assay, and […] protein lysate was separated in each SDS-PAGE lane. The separated proteins were transferred to a polyvinylidene difluoride (PVDF)membrane, which was blotted with antibodies in TBS containing 0.05% Tween (TBS-T) and 5% BSA. For secondary antibody incubation. TBS-T containing 5% milk was used. Enhanced chemiluminescence (ECL) western blotting substrates (Pierce) were used for visualization of the results.

PTH1R [3] = target: T1, PTH1R; conditions: cited from earlier work

Substance: PTH (1-34): Synthetic peptide rat PTH(1-34) (Ala32-Phe65; Catalog No. H-5460), purchased from Bachem
- binding in the absence of G protein coupling (RO conformational state) (PTH1R [1]): only slightly decreased
- phosphorylation of the PKA substrates CREB and HSL [2]: stimulated the phosphorylation
- duration of cAMP signal after ligand wash-out (PTH1R [3]; Dean et al. (2008)): longer lasting cAMP signal
- potency for activating cAMP signaling (PTH1R [3]; Juppner et al. (1991)): equally potent for activating cAMP signaling
